Laboratory results taken from IntAct's records for PubMed 24981741.

B1: Protein LYRIC (Mus musculus), Q80WJ7 (parent)
chain: MAARSWQDELAQQAEEGSARLRELLSVGLGFLRTELGLDLGLEPKRYPGWVILVGTGALGLLLLFLLGYGWAAACAGARKKRRSPPRKREEAAPPTPAPDDLAQLKNLRSEEQKKKNRKKLPEKPKPNGRTVEVPEDEVVRNPRSITAKQAPETDKKNEKSKKNKKKSKSDAKAVQNSSRHDGKEVDEGAWETKISHREKRQQRKRDKVLTDSGSLDSTIPGIENIITVTTEQLTTASFPVGSKKNKGDSHLNVQVSNFKSGKGDSTLQVSSRLNENLTVNGGGWSEKSVKLSSQLSEEKWNSVPPASAGKRKTEPSAWTQDTGDTNANGKDWGRNWSDRSIFSGIGSTAEPVSQSTTSDYQWDVSRNQPYIDDEWSGLNGLSSADPSSDWNAPAEEWGNWVDEDRASLLKSQEPISNDQKVSDDDKEKGEGALPTGKSKKKKKKKKKQGEDNSHTQDTEDLEKDTREELPVNTSKARPKQEKACSLKTMSTSDPAEVLIKNSQPVKTLPPAISAEPSITLSKGDSDNSSSQVPPMLQDTDKPKSNAKQNSVPPSQTKSETNWESPKQIKKKKKARRET
partner: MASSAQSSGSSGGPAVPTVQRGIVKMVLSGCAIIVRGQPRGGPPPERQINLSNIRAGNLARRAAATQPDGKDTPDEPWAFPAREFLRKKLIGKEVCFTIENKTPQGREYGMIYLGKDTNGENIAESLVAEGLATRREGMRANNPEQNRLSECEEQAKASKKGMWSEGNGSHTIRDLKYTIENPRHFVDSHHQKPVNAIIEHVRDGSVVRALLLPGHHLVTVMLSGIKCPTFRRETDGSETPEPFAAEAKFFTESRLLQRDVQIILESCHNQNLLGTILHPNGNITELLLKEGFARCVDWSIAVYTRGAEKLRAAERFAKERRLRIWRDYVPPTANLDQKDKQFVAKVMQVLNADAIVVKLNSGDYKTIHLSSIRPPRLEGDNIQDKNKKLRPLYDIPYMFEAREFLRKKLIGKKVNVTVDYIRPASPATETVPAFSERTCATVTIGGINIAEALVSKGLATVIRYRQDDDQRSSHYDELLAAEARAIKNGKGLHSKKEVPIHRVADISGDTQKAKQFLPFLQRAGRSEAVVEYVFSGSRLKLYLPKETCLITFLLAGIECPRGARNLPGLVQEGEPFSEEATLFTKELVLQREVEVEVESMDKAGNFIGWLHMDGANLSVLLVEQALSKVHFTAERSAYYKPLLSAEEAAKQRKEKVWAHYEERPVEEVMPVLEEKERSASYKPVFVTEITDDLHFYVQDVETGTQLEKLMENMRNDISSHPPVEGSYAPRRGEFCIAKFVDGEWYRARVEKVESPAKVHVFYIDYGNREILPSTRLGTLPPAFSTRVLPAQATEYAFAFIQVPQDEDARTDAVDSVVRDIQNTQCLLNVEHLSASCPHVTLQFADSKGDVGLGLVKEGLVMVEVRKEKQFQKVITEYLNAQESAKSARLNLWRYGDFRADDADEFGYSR

Variants of: B1
Details: with snd1_mouse Snd1, Q78PY7

Row | Variant | effect of a mutation on the interaction
1 | MAARSWQDELAQQAEEGSARLRELLSVGLGFLRTELGLDLGLEPKRYPGWVILVGTGALGLLLLFLLGYGWAAACAGARKKRRSPPRKREEAAPPTPAPDDLAQLKNLRSEEQKKKNRKKLPEKPKPNGRTVEVPEDEVVRNPRSITAKQAPETDKKNEKSKKNKKKSKSDAKAVQNSSRHDGKEVDEGAWETKISHREKRQQRKRDKVLTDSGSLDSTIPGIENIITVTTEQLTTASFPVGSKKNKGDSHLNVQVSNFKSGKGDSTLQVSSRLNENLTVNGGGWSEKSVKLSSQLSEEKWNSVPPASAGKRKTEPSAWTQDTGDTNANGKDWGRNWSDRSIFSGIGSTAEPVSQSTTSDYQWDVSRNQPYIDDEWSGLNGLSSARPSSRDNAPAEEWGNWVDEDRASLLKSQEPISNDQKVSDDDKEKGEGALPTGKSKKKKKKKKKQGEDNSHTQDTEDLEKDTREELPVNTSKARPKQEKACSLKTMSTSDPAEVLIKNSQPVKTLPPAISAEPSITLSKGDSDNSSSQVPPMLQDTDKPKSNAKQNSVPPSQTKSETNWESPKQIKKKKKARRET [D386R;D390R;W391D] | disrupting interaction strength
2 | MAARSWQDELAQQAEEGSARLRELLSVGLGFLRTELGLDLGLEPKRYPGWVILVGTGALGLLLLFLLGYGWAAACAGARKKRRSPPRKREEAAPPTPAPDDLAQLKNLRSEEQKKKNRKKLPEKPKPNGRTVEVPEDEVVRNPRSITAKQAPETDKKNEKSKKNKKKSKSDAKAVQNSSRHDGKEVDEGAWETKISHREKRQQRKRDKVLTDSGSLDSTIPGIENIITVTTEQLTTASFPVGSKKNKGDSHLNVQVSNFKSGKGDSTLQVSSRLNENLTVNGGGWSEKSVKLSSQLSEEKWNSVPPASAGKRKTEPSAWTQDTGDTNANGKDWGRNWSDRSIFSGIGSTAEPVSQSTTSDYQWDVSRNQPYIDDEWSGLNGLSSADPSSDWNAPAEEDGNWVDEDRASLLKSQEPISNDQKVSDDDKEKGEGALPTGKSKKKKKKKKKQGEDNSHTQDTEDLEKDTREELPVNTSKARPKQEKACSLKTMSTSDPAEVLIKNSQPVKTLPPAISAEPSITLSKGDSDNSSSQVPPMLQDTDKPKSNAKQNSVPPSQTKSETNWESPKQIKKKKKARRET [W398D] | disrupting interaction strength
3 | MAARSWQDELAQQAEEGSARLRELLSVGLGFLRTELGLDLGLEPKRYPGWVILVGTGALGLLLLFLLGYGWAAACAGARKKRRSPPRKREEAAPPTPAPDDLAQLKNLRSEEQKKKNRKKLPEKPKPNGRTVEVPEDEVVRNPRSITAKQAPETDKKNEKSKKNKKKSKSDAKAVQNSSRHDGKEVDEGAWETKISHREKRQQRKRDKVLTDSGSLDSTIPGIENIITVTTEQLTTASFPVGSKKNKGDSHLNVQVSNFKSGKGDSTLQVSSRLNENLTVNGGGWSEKSVKLSSQLSEEKWNSVPPASAGKRKTEPSAWTQDTGDTNANGKDWGRNWSDRSIFSGIGSTAEPVSQSTTSDYQWDVSRNQPYIDDEWSGLNGLSSADPSSDDNAPAEEWGNWVDEDRASLLKSQEPISNDQKVSDDDKEKGEGALPTGKSKKKKKKKKKQGEDNSHTQDTEDLEKDTREELPVNTSKARPKQEKACSLKTMSTSDPAEVLIKNSQPVKTLPPAISAEPSITLSKGDSDNSSSQVPPMLQDTDKPKSNAKQNSVPPSQTKSETNWESPKQIKKKKKARRET [W391D] | disrupting interaction strength
4 | MAARSWQDELAQQAEEGSARLRELLSVGLGFLRTELGLDLGLEPKRYPGWVILVGTGALGLLLLFLLGYGWAAACAGARKKRRSPPRKREEAAPPTPAPDDLAQLKNLRSEEQKKKNRKKLPEKPKPNGRTVEVPEDEVVRNPRSITAKQAPETDKKNEKSKKNKKKSKSDAKAVQNSSRHDGKEVDEGAWETKISHREKRQQRKRDKVLTDSGSLDSTIPGIENIITVTTEQLTTASFPVGSKKNKGDSHLNVQVSNFKSGKGDSTLQVSSRLNENLTVNGGGWSEKSVKLSSQLSEEKWNSVPPASAGKRKTEPSAWTQDTGDTNANGKDWGRNWSDRSIFSGIGSTAEPVSQSTTSDYQWDVSRNQPYIDDEWSGLNGLSSADPSSDWNAPARRDGNWVDEDRASLLKSQEPISNDQKVSDDDKEKGEGALPTGKSKKKKKKKKKQGEDNSHTQDTEDLEKDTREELPVNTSKARPKQEKACSLKTMSTSDPAEVLIKNSQPVKTLPPAISAEPSITLSKGDSDNSSSQVPPMLQDTDKPKSNAKQNSVPPSQTKSETNWESPKQIKKKKKARRET [E396R;E397R;W398D] | disrupting interaction strength
